Data reported in patent US20190375795A1 (CGTX PEPTIDE DEVELOPMENT, published 2019).

Key:
[1] = molecular target: human Kv1.3 (hKv1.3) channel (human, UniProt P22001 1-575); test: cell-based or functional assay
Kv1.5 = molecular target: T1, Kv1.5 (UniProt P22460 1-613); test: planar patch clamp (Port-A-Patch), channel expressed in cells
T1 construct: whole, on cells
T1 sequence (P22460 whole entry): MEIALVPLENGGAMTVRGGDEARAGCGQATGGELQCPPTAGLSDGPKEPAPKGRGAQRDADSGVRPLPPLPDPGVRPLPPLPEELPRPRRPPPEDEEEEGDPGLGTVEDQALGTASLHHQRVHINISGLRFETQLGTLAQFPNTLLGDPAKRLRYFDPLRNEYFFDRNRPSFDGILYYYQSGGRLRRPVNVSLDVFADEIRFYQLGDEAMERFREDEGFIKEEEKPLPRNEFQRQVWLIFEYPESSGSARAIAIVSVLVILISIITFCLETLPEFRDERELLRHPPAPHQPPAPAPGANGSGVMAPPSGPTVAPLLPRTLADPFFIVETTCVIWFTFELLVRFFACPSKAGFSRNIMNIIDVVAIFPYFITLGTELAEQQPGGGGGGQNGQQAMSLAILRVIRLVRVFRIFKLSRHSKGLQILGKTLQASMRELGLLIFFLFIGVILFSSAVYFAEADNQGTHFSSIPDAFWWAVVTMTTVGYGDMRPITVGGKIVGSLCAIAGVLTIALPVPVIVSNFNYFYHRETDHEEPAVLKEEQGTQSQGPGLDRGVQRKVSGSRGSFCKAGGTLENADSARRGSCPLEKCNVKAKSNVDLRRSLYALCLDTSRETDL

Sequence of human Kv1.3 (hKv1.3) channel (P22001 whole entry): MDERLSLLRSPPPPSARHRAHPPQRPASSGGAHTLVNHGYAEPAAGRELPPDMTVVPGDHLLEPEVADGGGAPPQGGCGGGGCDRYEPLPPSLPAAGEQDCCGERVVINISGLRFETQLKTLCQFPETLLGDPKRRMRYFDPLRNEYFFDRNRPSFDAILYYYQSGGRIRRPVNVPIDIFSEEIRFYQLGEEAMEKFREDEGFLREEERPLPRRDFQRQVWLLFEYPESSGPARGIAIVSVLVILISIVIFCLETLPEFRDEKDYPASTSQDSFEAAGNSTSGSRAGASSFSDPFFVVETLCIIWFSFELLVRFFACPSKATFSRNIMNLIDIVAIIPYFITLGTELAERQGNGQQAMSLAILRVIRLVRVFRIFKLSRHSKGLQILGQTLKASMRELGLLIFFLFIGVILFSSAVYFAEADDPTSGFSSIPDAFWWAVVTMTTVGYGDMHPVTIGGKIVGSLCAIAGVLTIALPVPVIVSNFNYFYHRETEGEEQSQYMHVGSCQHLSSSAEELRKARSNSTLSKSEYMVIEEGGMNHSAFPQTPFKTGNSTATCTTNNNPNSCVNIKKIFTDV

B1: HsTx 1 (peptide)
peptide: ASCRTPKDCADPCRKETGCPYGKCMNRKCKCNRC
notes: also called toxin HsTx 1
[1]
  selectivity for Kv1.3 vs. Kv1.1 (patch clamp IC50s): ~450 fold
Kv1.5
  binding result: no binding
